Test results as given in patent US20100310591A1 (published 2010).
Non-standard residues stand in square brackets, D forms with d. Ava = NCCCCC(=O)O

B1: Hybrid 2, Ac-LRMK-ava-IAYLKQATAK-NH2 (peptide)
peptide: Ac-LRMK[Ava]IAYLKQATAK-NH2
SMILES: CC[C@H](C)[C@H](NC(=O)CCCCNC(=O)[C@H](CCCCN)NC(=O)[C@H](CCSC)NC(=O)[C@H](CCCNC(=N)N)NC(=O)[C@H](CC(C)C)NC(C)=O)C(=O)N[C@@H](C)C(=O)N[C@@H](Cc1ccc(O)cc1)C(=O)N[C@@H](CC(C)C)C(=O)N[C@@H](CCCCN)C(=O)N[C@@H](CCC(N)=O)C(=O)N[C@@H](C)C(=O)N[C@H](C(=O)N[C@@H](C)C(=O)N[C@@H](CCCCN)C(N)=O)[C@@H](C)O
B2: Hybrid 3, Ac-LRMK-ava-ava-IAYLKQATAK-NH2 (peptide)
peptide: Ac-LRMK[Ava][Ava]IAYLKQATAK-NH2
SMILES: CC[C@H](C)[C@H](NC(=O)CCCCNC(=O)CCCCNC(=O)[C@H](CCCCN)NC(=O)[C@H](CCSC)NC(=O)[C@H](CCCNC(=N)N)NC(=O)[C@H](CC(C)C)NC(C)=O)C(=O)N[C@@H](C)C(=O)N[C@@H](Cc1ccc(O)cc1)C(=O)N[C@@H](CC(C)C)C(=O)N[C@@H](CCCCN)C(=O)N[C@@H](CCC(N)=O)C(=O)N[C@@H](C)C(=O)N[C@H](C(=O)N[C@@H](C)C(=O)N[C@@H](CCCCN)C(N)=O)[C@@H](C)O

Each binder was assayed against murine class II MHC allele E^k on CH27 B cell lymphoma antigen presenting cells (murine) (assay: cell-based or functional assay).
With Ac-LRMKLPKSAKPIAYLKQATAK-NH2 [Hybrid 5, Ac-LRMKLPKSAKPIAYLKQATAK-NH2] the “T cell proliferative response (HT-2 [3H]TdR uptake) at 0.01 nM” value (“T cell proliferative response … at 0.01 nM” below) was 14.3 thousands of cpm, the “T cell proliferative response (HT-2 [3H]TdR uptake) at 0.05 nM” value (shortened to “T cell proliferative response … at 0.05 nM”) was 21.3 thousands of cpm and the “T cell proliferative response (HT-2 [3H]TdR uptake) at 0.18 nM” value (“T cell proliferative response … at 0.18 nM” for short) was 36.7 thousands of cpm. The “T cell proliferative response (HT-2 [3H]TdR uptake) at 0.73 nM” value (“T cell proliferative response … at 0.73 nM” below) was 30.1 thousands of cpm, the “T cell proliferative response (HT-2 [3H]TdR uptake) at 3 nM” value (shortened to “T cell proliferative response … at 3 nM”) was 31.4 thousands of cpm and the “T cell proliferative response (HT-2 [3H]TdR uptake) at 12 nM” value (from here on “T cell proliferative response … at 12 nM”) was 44.6 thousands of cpm. The “T cell proliferative response (HT-2 [3H]TdR uptake) at 47 nM” value (from here on “T cell proliferative response … at 47 nM”) was 26.2 thousands of cpm, the “T cell proliferative response (HT-2 [3H]TdR uptake) at 188 nM” value (from here on “T cell proliferative response … at 188 nM”) was 29.1 thousands of cpm and the “T cell proliferative response (HT-2 [3H]TdR uptake) at 750 nM” value (shortened to “T cell proliferative response … at 750 nM”) was 27.5 thousands of cpm. For the same binder, the “T cell proliferative response (HT-2 [3H]TdR uptake) at 3000 nM” value (“T cell proliferative response … at 3000 nM” below) was 27.3 thousands of cpm. Ac-LRMKLPKSAKPVSKIAYLKQATAK-NH2 [Hybrid 6, Ac-LRMKLPKSAKPVSKIAYLKQATAK-NH2] was tested, and the “T cell proliferative response … at 0.01 nM” value was 2.9 thousands of cpm, the “T cell proliferative response … at 0.05 nM” value was 2.4 thousands of cpm and the “T cell proliferative response … at 0.18 nM” value was 11.9 thousands of cpm. The “T cell proliferative response … at 0.73 nM” value was 28.7 thousands of cpm, the “T cell proliferative response … at 3 nM” value was 31.4 thousands of cpm and the “T cell proliferative response … at 12 nM” value was 39.2 thousands of cpm. The “T cell proliferative response … at 47 nM” value was 25.3 thousands of cpm, the “T cell proliferative response … at 188 nM” value was 26.9 thousands of cpm and the “T cell proliferative response … at 750 nM” value was 23.4 thousands of cpm. For the same binder, the “T cell proliferative response … at 3000 nM” value was 21.5 thousands of cpm. In the case of Ac-IAYLKQATAK-NH2 [Hybrid 1, Ac-IAYLKQATAK-NH2 (antigenic epitope PGCC 95-104 without Ii-Key)], the “T cell proliferative response … at 0.01 nM” value is reported as 0 thousands of cpm, the “T cell proliferative response … at 0.05 nM” value is reported as 0 thousands of cpm and the “T cell proliferative response … at 0.18 nM” value is reported as 0 thousands of cpm. For the same binder, the “T cell proliferative response … at 0.73 nM” value was 4 thousands of cpm, the “T cell proliferative response … at 3 nM” value was 0.4 thousands of cpm and the “T cell proliferative response … at 12 nM” value was 10.9 thousands of cpm. For the same binder, the “T cell proliferative response … at 47 nM” value was 29.5 thousands of cpm, the “T cell proliferative response … at 188 nM” value was 32.4 thousands of cpm and the “T cell proliferative response … at 750 nM” value was 27.8 thousands of cpm. For the same binder, the “T cell proliferative response … at 3000 nM” value was 25.2 thousands of cpm. For B1, the “T cell proliferative response … at 0.01 nM” value was 3.4 thousands of cpm, the “T cell proliferative response … at 0.05 nM” value was 19.8 thousands of cpm and the “T cell proliferative response … at 0.18 nM” value was 31.2 thousands of cpm. For the same binder, the “T cell proliferative response … at 0.73 nM” value was 38.8 thousands of cpm, the “T cell proliferative response … at 3 nM” value was 30.1 thousands of cpm and the “T cell proliferative response … at 12 nM” value was 21.9 thousands of cpm. The “T cell proliferative response … at 47 nM” value was 20.8 thousands of cpm, the “T cell proliferative response … at 188 nM” value was 27.2 thousands of cpm and the “T cell proliferative response … at 750 nM” value was 23.9 thousands of cpm. For the same binder, the “T cell proliferative response … at 3000 nM” value was 25.1 thousands of cpm. For B2, the “T cell proliferative response … at 0.01 nM” value was 0.6 thousands of cpm, the “T cell proliferative response … at 0.05 nM” value was 5.3 thousands of cpm and the “T cell proliferative response … at 0.18 nM” value was 21.6 thousands of cpm. For the same binder, the “T cell proliferative response … at 0.73 nM” value was 22.3 thousands of cpm, the “T cell proliferative response … at 3 nM” value was 27.9 thousands of cpm and the “T cell proliferative response … at 12 nM” value was 29.5 thousands of cpm. The “T cell proliferative response … at 47 nM” value was 26.2 thousands of cpm, the “T cell proliferative response … at 188 nM” value was 26.2 thousands of cpm and the “T cell proliferative response … at 750 nM” value was 31.7 thousands of cpm. The “T cell proliferative response … at 3000 nM” value was 31.9 thousands of cpm. With Ac-LRMKLPKSIAYLKQATAK-NH2 [Hybrid 4, Ac-LRMKLPKSIAYLKQATAK-NH2] the “T cell proliferative response … at 0.01 nM” value was 2.5 thousands of cpm, the “T cell proliferative response … at 0.05 nM” value was 5.8 thousands of cpm and the “T cell proliferative response … at 0.18 nM” value was 9.1 thousands of cpm. For the same binder, the “T cell proliferative response … at 0.73 nM” value was 19.2 thousands of cpm, the “T cell proliferative response … at 3 nM” value was 19 thousands of cpm and the “T cell proliferative response … at 12 nM” value was 23.1 thousands of cpm. The “T cell proliferative response … at 47 nM” value was 19.5 thousands of cpm, the “T cell proliferative response … at 188 nM” value was 20.8 thousands of cpm and the “T cell proliferative response … at 750 nM” value was 23.3 thousands of cpm. For the same binder, the “T cell proliferative response … at 3000 nM” value was 25.2 thousands of cpm.
